{"source": "paper PMC3498290", "about": "“Mimicking Insect Communication: Release and Detection of Pheromone, Biosynthesized by an Alcohol Acetyl Transferase Immobilized in a Microreactor” (PLoS ONE, 2012)", "proteins": {"B1": {"name": "Acinetobacter wax synthase (atf, alcohol acetyl transferase; His6-tagged diacylglycerol acyl transferase) (Acinetobacter baylyi ADP1) (protein)", "chain": "MRPLHPIDFIFLSLEKRQQPMHVGGLFLFQIPDNAPDTFIQDLVNDIRISKSIPVPPFNNKLNGLFWDEDEEFDLDHHFRHIALPHPGRIRELLIYISQEHSTLLDRAKPLWTCNIIEGIEGNRFAMYFKIHHAMVDGVAGMRLIEKSLSHDVTEKSIVPPWCVEGKRAKRLREPKTGKIKKIMSGIKSQLQATPTVIQELSQTVFKDIGRNPDHVSSFQAPCSILNQRVSSSRRFAAQSFDLDRFRNIAKSLNVTINDVVLAVCSGALRAYLMSHNSLPSKPLIAMVPASIRNDDSDVSNRITMILANLATHKDDPLQRLEIIRRSVQNSKQRFKRMTSDQILNYSAVVYGPAGLNIISGMMPKRQAFNLVISNVPGPREPLYWNGAKLDALYPASIVLDGQALNITMTSYLDKLEVGLIACRNALPRMQNLLTHLEEEIQLFEGVIAKQEDIKTAN", "notes": "His6-tagged, pET23a, E. coli Rosetta(DE3)pLysS; Ni-NTA and gel filtration; tag kept; plasmid from S. Uthoff (Muenster)"}}, "substrate": "CC/C=C/C=C\\CCCCCCCCO", "experiment": "batch acetylation assay, Hanes-Woolf plot", "assay_type": "biochemical, Acinetobacter baylyi", "settings": "free enzyme in batch, before immobilization; co-substrate acetyl-CoA (300 µM in the preliminary time course); alcohol 1.25 µM-1.3 mM", "data": [{"protein": "B1", "values": [{"measurement": "Km", "value": 1.63, "unit": "µM"}]}]}
